According to publication PMC6173745, “Aberrant expression of CITED2 promotes prostate cancer metastasis by activating the nucleolin-AKT pathway” (Nature Communications, 2018):

Legend:
[1] = target: T1, Human recombinant protein NCL (human, UniProt P19338 1-710); test: co-IP; in vitro binding assay: recombinant proteins CITED2, PRMT5, NCL and P300 put together in a test tube, immunoprecipitated with the indicated antibodies, immunoblotted; details: both partners purified
T1 construct: Nucleolin, human, recombinant protein bought from Origene; No catalogue number, host, tag or limits are printed; also called nucleolin; source: bought: Origene

[2] = target: T2, Human recombinant protein PRMT5 (human, UniProt O14744 1-637); test: as above; details: both partners purified
T2 construct: PRMT5, human, recombinant protein bought from Origene; No catalogue number, host, tag or limits are printed; source: bought: Origene
T2 sequence (O14744 whole entry): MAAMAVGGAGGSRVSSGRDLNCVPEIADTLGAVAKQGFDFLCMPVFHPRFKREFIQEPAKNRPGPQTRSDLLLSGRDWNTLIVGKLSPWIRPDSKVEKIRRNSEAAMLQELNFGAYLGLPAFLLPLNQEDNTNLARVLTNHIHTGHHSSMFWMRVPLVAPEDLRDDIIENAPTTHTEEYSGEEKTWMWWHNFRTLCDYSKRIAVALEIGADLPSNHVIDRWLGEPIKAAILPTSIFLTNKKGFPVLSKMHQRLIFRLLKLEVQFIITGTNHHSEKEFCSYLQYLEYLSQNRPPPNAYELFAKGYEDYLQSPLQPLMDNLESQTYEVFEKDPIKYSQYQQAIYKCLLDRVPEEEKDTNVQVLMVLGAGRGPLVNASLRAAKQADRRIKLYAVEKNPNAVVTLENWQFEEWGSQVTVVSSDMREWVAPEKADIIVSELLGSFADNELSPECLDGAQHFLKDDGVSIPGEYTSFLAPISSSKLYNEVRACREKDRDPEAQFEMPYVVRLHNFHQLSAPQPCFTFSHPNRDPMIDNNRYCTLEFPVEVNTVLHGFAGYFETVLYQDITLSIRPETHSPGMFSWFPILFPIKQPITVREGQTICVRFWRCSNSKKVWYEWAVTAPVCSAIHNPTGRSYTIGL

T1 sequence (P19338 whole entry): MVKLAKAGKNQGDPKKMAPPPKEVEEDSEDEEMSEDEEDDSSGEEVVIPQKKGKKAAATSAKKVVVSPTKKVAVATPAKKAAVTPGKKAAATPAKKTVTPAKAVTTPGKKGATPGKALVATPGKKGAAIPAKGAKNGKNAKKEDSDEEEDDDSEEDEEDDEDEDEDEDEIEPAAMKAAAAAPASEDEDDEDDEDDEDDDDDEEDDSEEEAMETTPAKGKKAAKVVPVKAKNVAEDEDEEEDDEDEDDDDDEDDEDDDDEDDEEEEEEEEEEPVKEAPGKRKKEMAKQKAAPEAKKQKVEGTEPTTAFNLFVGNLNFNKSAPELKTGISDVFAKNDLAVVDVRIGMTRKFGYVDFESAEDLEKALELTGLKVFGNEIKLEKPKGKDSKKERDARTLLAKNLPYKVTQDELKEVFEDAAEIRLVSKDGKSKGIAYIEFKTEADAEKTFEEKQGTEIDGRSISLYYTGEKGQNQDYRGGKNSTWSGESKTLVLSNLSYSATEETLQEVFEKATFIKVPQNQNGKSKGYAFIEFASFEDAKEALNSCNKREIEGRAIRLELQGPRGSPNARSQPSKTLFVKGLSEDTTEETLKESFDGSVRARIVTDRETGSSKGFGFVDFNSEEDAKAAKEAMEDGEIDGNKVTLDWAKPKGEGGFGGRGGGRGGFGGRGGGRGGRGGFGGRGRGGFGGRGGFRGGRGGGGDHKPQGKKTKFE

B1: Human recombinant protein CITED2 (natural protein, UniProt Q99967 1-270, looked up)
chain: MADHMMAMNHGRFPDGTNGLHHHPAHRMGMGQFPSPHHHQQQQPQHAFNALMGEHIHYGAGNMNATSGIRHAMGPGTVNGGHPPSALAPAARFNNSQFMGPPVASQGGSLPASMQLQKLNNQYFNHHPYPHNHYMPDLHPAAGHQMNGTNQHFRDCNPKHSGGSSTPGGSGGSSTPGGSGSSSGGGAGSSNSGGGSGSGNMPASVAHVPAAMLPPNVIDTDFIDEEVLMSLVIEMGLDRIKELPELWLGQNEFDFMTDFVCKQQPSRVSC
notes: CITED2, human, recombinant protein bought from Origene; No catalogue number, host, tag or limits are printed; source: bought: Origene
B1: binds [1]; binds [2].
